From patent US20210275641A1 (SYNTHEKINE, published 2021)
Changes are numbered by the printed parent chain. Names and notes keep the numbering of the source.

T1: human high affinity trimeric IL-2 receptor (CD25/CD122/CD132) (human, UniProt P01589 22-272; P14784 27-551; P31785 23-369)
T1 sequence 1: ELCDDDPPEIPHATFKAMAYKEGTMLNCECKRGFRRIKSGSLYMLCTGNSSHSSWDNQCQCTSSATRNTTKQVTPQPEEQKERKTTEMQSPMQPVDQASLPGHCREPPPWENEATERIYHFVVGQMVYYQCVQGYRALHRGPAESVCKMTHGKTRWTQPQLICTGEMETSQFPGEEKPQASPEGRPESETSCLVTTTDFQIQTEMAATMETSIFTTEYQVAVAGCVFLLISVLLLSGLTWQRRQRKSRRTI
T1 sequence 2: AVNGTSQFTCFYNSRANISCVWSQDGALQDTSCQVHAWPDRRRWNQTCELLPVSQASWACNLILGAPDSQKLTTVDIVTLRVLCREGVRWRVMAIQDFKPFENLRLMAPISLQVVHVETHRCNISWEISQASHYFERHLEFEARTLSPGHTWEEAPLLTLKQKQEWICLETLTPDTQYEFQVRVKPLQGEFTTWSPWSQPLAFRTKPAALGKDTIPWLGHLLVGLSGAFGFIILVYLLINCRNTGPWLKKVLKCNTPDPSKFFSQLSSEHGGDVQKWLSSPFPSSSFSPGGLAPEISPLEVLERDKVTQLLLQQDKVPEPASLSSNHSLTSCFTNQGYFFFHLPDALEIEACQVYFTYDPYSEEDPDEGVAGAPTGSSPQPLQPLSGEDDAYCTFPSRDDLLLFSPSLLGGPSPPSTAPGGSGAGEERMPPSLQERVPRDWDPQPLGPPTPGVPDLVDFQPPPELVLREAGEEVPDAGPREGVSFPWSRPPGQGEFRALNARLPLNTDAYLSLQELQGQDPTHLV
T1 sequence 3: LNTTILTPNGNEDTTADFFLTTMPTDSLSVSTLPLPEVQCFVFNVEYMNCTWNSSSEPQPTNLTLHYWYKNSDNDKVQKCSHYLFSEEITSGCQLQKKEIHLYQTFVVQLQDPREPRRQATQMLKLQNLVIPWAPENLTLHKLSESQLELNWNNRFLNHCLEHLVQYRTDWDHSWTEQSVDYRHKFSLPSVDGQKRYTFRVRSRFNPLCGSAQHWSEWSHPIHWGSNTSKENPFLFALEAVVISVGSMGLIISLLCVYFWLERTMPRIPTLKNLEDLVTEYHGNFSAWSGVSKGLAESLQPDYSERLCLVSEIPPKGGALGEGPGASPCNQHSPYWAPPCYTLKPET

T2: IL-2 receptor of the human CD4 positive T cell clone 3F8 (expresses CD25 and CD122) (human, UniProt P01589 22-272; P14784 27-551)
T2 sequence 1: T1 sequence 1
T2 sequence 2: T1 sequence 2

B1: STK-012 (N-terminally 40 kD PEGylated des-Ala1 REK hIL2 mutein, STK-011) (ligand)
chain: PTSSSTKKTQLQLEHLRLDLEMILNGINNYKNPKLTRMLTFKFYMPKKATELKHLQCLEEELKPLEEVLNLAQSKNFHLRPRDLISNINVIVLELKGSETTFMCEYADETATIVEFLNRWITFCKSIISTLT
modifications: N-terminal proline conjugated to a 40 kd (20 kD x 2 arm) branched PEG moiety via a linker
B2: hIL2 mutein HEK (L18H, Q22E, Q126K) (ligand)
chain: APTSSSTKKTQLQLEHLHLDLEMILNGINNYKNPKLTRMLTFKFYMPKKATELKHLQCLEEELKPLEEVLNLAQSKNFHLRPRDLISNINVIVLELKGSETTFMCEYADETATIVEFLNRWITFCKSIISTLT
B3: hIL2 mutein REK (L18R, Q22E, Q126K) (ligand)
chain: B2 chain with H18R
B4: hIL2 mutein IEK (L18I, Q22E, Q126K) (ligand)
chain: B2 chain with H18I
B5: hIL2 mutein RTK (L18R, Q22T, Q126K) (ligand)
chain: B2 chain with H18R, E22T
B6: hIL2 mutein REM (L18R, Q22E, Q126M) (ligand)
chain: B2 chain with H18R, K126M
B7: hIL2 mutein REE (L18R, Q22E, Q126E) (ligand)
chain: B2 chain with H18R, K126E

Columns and labels:
Assay in all cases: cell-based or functional assay
[1] = target: T1, human high affinity trimeric IL-2 …
[2] = target: T2, IL-2 receptor of the human CD4 positive …
[3] = target: T1, human high affinity trimeric IL-2 …; remark: listed apart in the source

Row | Binder | EC50 (read off the curve) [1] | IFNγ Production IC50 (pM), 3F8 cells [2] | Proliferation IC50 (pM), 3F8 cells [2] | pSTAT5 ratio YT CD25/YT, dilution factor 2, upper table [3] | pSTAT5 ratio YT CD25/YT, dilution factor 4, upper table [3] | pSTAT5 ratio YT CD25/YT, dilution factor 8, upper table [3] | pSTAT5 ratio YT CD25/YT, dilution factor 16, upper table [3] | pSTAT5 ratio YT CD25/YT, dilution factor 32, upper table [3] | pSTAT5 ratio YT CD25/YT, dilution factor 64, upper table [3] | pSTAT5 ratio YT CD25/YT, dilution factor 128, upper table [3]
1 | B1 | ~8 pM |  |  |  |  |  |  |  |  | 
2 | B2 |  | 30.4 pM | 20.9 pM |  |  |  |  |  |  | 
3 | B3 |  | 17.7 pM | 14.2 pM | 1.1 | 1.6 | 2.6 | 4.8 | 7.7 | 11.8 | 13.1
4 | B4 |  | 8.8 pM | 10 pM |  |  |  |  |  |  | 
5 | B5 |  |  | 62.8 pM |  |  |  |  |  |  | 
6 | B6 |  | 12.7 pM | 32.6 pM |  |  |  |  |  |  | 
7 | B7 |  | 18.4 pM | 33 pM | 1.4 | 2.9 | 5.9 | 10.1 | 13.5 | 15.3 | 16.8
